# According to patent US20040029178A1, “Novel g protein-coupled receptor proteins and dnas thereof” (priority 2000, published 2004):
# pIC50: −log10 of the molar value. Peptide text beside a SMILES is read from it.
# What was measured:
# TGR26 [1] = biological target: T1, TGR26 (Rattus norvegicus, UniProt Q56UD9); experiment: Inhibition of intracellular cAMP production using TGR26 expressing CHO cells; format: cell-based; details: 2 μM forskolin, various concentrations
# T1 construct: expressed in transfected cells; whole cells in A1, membrane fraction in A2 and A3
# T1 sequence (Q56UD9 1-329): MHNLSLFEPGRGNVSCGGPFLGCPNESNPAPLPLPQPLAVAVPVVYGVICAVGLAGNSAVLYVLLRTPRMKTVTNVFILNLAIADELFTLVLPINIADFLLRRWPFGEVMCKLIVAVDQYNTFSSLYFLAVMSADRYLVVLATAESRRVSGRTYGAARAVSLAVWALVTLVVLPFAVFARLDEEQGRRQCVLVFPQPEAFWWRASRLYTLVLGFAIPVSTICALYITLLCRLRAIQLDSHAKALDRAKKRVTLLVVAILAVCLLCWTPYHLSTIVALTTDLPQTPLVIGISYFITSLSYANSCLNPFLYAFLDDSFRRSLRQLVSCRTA
# Description: TGR26 expressing CHO cells prepared in Example 3 were seeded on 24-well plate at 5×10^4 cells/well and cultivated for 48 hours. The cells were washed with MEMα buffer (pH 7.4) containing 0.2 mM 3-isobutyl-methylxanthine, 0.05% BSA (bovine serum albumine) and 20 mM HEPES [hereafter, MEMα buffer (pH 7.4) containing 0.2 mM 3-isobutyl-methylxanthine, 0.05% BSA (bovine serum albumine) and 20 mM HEPES may be referred to as reaction buffer]. Then, 0.5 ml of the reaction buffer was added to the cells and the suspension was incubated for 30 minutes in the incubator. After removal of the reaction buffer and newly adding 0.25 ml of the reaction buffer to the cells, an appropriate concentration of sample in DMSO solution and 0.25 ml of the reaction buffer containing 2 μM forskolin were added to the cells and the mixture was reacted at 37° C. for 30 minutes. For termination of the reaction, 100 μl of 20% perchloric acid was added. Subsequently, the mixture was stood on ice for an hour to extract intracellular cAMP. The cAMP level in the extract was measured using the cAMP EIA Kit (Amersham Pharmacia Biotech).
# The human homologue of GPR8 ligand peptide consisting of 23 residues represented by […], which was obtained in Reference Example 12 (hereafter, sometimes referred to as hGPR8L (1-23)), or the human homologue of GPR8 ligand peptide consisting of 30 residues represented by […], which was obtained in Reference Example 13 (hereafter, sometimes referred to as hGPR8L (1-30)) was administered at various concentrations to […] TGR26 expressing CHO cells by the method described in Example 4, and an inhibiting activity of intracellular cAMP production was measured.
# In the figure, when an amount subtracted intracellular cAMP level with the reaction buffer from intracellular cAMP level with the reaction buffer containing forskolin is indicated as 100%, the inhibiting activity of cAMP synthesis is indicated as an amount subtracted intracellular cAMP level with hGPR8L (1-23) or hGPR8L (1-30) from intracellular cAMP level with the reaction buffer by representation of percentage (%).
# TGR26 [2] = biological target: T1, TGR26; experiment: GTPγS binding activity using a membrane fraction of TGR26 expressing CHO cells; format: biochemical; details: various concentrations
# Description: Promoting activity for [^35S]-guanosine 5′-(γ-thio) triphosphate (GTPγS) binding to a membrane fraction of TGR26 expressing cells was assayed in accordance with the following method.
# To 1×10^8 of TGR26 expressing CHO cells, 10 ml of homogenating buffer (10 mM NaHCO3, 5 mM EDTA, 0.5 mM PMSF (phenylmethylsulfonyl fluoride), 1 μg/ml Pepstatin, 4 μg/ml E-64, 20 μg/ml Leupeptin) was added, and the cells were disrupted using Polytron (12,000 rpm, 1 minute). Supernatant was obtained from the disrupted cell suspension by centrifugation (1,000 g, 15 minutes). In addition, the supernatant was ultracentrifuged (Beckman Type 30 rotor, 30,000 rpm, 1 hour), and precipitate obtained was kept as a membrane fraction of TGR26 expressing CHO cells.
# The membrane fraction of TGR26 expressing CHO cells was diluted with membrane dilution buffer (50 mM Tris HCl buffer (pH 7.4), 5 mM MgCl2, 150 mM NaCl, 1 μM GDP, 0.1% BSA) to prepare a cell membrane fraction solution for assay at 30 μg/ml of protein concentration. To 200 μl of membrane fraction solution for assay, 2 μl of 50 nM [^35S]-guanosine 5′-(γ-thio) triphosphate (NEN) and 2 μl of sample/DMSO solution having an appropriate concentration were added. Then the mixture was incubated at 25° C. for one hour. The mixture was filtrated, and further the filter was washed twice with 1.5 ml of washing buffer (50 mM Tris HCl buffer (pH 7.4), 5 mM MgCl2, 1 mM EDTA, 0.1% BSA). Finally, a radioactivity on the filter was determined by liquid scintillation counter.
# Various concentration of hGPR8L (1-23) or hGPR8L (1-30) was mixed with a membrane fraction of the TGR26 expressing cell in accordance with the method described in Example 6, and a promoting activity of GTPγS binding was assayed.
# TGR26 [3] = biological target: T1, TGR26; experiment: Receptor binding using [125I-Tyr10]-hGPR8L (1-23) and membrane fraction of TGR26 expressing CHO cells; details: for inhibition for the specific binding of [125I-Tyr10]-hGPR8L (1-23): membrane fraction of TGR26 expressing cells, in words
# Description: Using [^125I-Tyr^10]-hGPR8L (1-23) prepared by the method described in Reference Example 15 and a cell membrane fraction prepared from TGR26 expressing cells as described in Example 6, a receptor binding assay was carried out as follows.
# Cell membrane fraction prepared from TGR26 expressing cells was diluted to various concentration with assay buffer (25 mM Tris-HCl, 5 mM EDTA, 0.05% CHAPS (3-[(3-Cholamidopropyl) Dimethyl-Ammonio]-1-Propanesulfonate), 0.1% BSA, 0.5 mM PMSF, 1 μg/ml Pepstatin, 20 μg/ml Leupeptin, 4 μg/ml E-64, pH 7.4), and 200 μl each of the diluent was dispensed into polypropilene test tube (Falcon 2053). In order to determine an amount of maximum binding, 2 μl of DMSO and 2 μl of 7 nM [^125I-Tyr^10]-hGPR8L (1-23) were added to the membrane fraction solution. Further, in order to determine a non-specific binding, 2 μl of 100 μM hGPR8L (1-23)/DMSO solution and 2 μl of 7 nM [^125I-Tyr^10]-hGPR8L (1-23) were added to the membrane fraction solution. The reaction was done at 25° C. for 75 minutes, and the reaction mixture was filtered by suction filtration using Whatman glassfilter (GF-F) treated with polyethyleneimine. In addition, the filter was washed twice with 1.5 ml of washing buffer (25 mM Tris-HCl, 5 mM EDTA, 0.05% CHAPS, 0.1% BSA, pH 7.4). After filtration, a radioactivity remaining on the filter was counted using γ-counter, and an amount of specific binding was estimated by subtracting an amount of non-specific binding from an amount of maximum binding.
# Where the concentration of membrane fraction was set to 3 μg/ml, an inhibition for the specific binding of [125I-Tyr^10]-hGPR8L (1-23) to the membrane fraction of TGR26 expressing cells by hGPR8L (1-23) and hGPR8L (1-30) was investigated.
# A receptor binding activity of human- and porcine-homologue derivatives of GPR8 ligand peptide obtained in the reference examples was measured using a membrane fraction of TGR26 expressing CHO cells and [^125I-Tyr^10]-hGPR8L (1-23) by the method described in Example 8. The receptor binding activity is represented by concentration of 50% inhibition for binding (IC50 value).
Molecule,inhibition for the specific binding of [125I-Tyr10]-hGPR8L (1-23) (TGR26 [3]),"pIC50 (TGR26 [3]; membrane fraction of TGR26 expressing CHO cells, [125I-Tyr10]-hGPR8L (1-23), method of Example 8)",inhibiting activity of intracellular cAMP production (TGR26 [1]),promoting activity of GTPγS binding (TGR26 [2])
"SEQ ID NO: 57: porcine homologue of hGPR8L (1-30), ligand peptide to GPR8 deduced from SEQ ID NO: 55 (WYKHTASPRYHTVGRAAGLLMGLRRSPYMW; Porcine)",can also be confirmed,–,intracellular cAMP production of the TGR26 expressing CHO cells was inhibited depending on the concentration,GTPγS binding of the TGR26 expressing CHO cells was promoted depending on the concentration
"SEQ ID NO: 92: mouse homologue of hGPR8L (1-30), ligand peptide to GPR8 deduced from SEQ ID NO: 90 (WYKHVASPRYHTVGRASGLLMGLRRSPYQW; Mouse)",can also be confirmed,–,intracellular cAMP production of the TGR26 expressing CHO cells was inhibited depending on the concentration,GTPγS binding of the TGR26 expressing CHO cells was promoted depending on the concentration
"CSCC[C@H](NC(=O)[C@H](CC(C)C)NC(=O)[C@H](CC(C)C)NC(=O)CNC(=O)[C@H](C)NC(=O)[C@H](C)NC(=O)[C@H](CCCNC(=N)N)NC(=O)CNC(=O)[C@@H](NC(=O)[C@@H](NC(=O)[C@H](Cc1c[nH]cn1)NC(=O)[C@H](Cc1ccc(O)cc1)NC(=O)[C@H](CCCNC(=N)N)NC(=O)[C@@H]1CCCN1C(=O)[C@H](CO)NC(=O)[C@H](C)NC(=O)[C@@H](NC(=O)[C@H](Cc1c[nH]cn1)NC(=O)[C@H](CCCCN)NC(=O)[C@H](Cc1ccc(O)cc1)NC(=O)[C@@H](N)Cc1c[nH]c2ccccc12)[C@@H](C)O)[C@@H](C)O)C(C)C)C(=O)NCC(=O)N[C@@H](CC(C)C)C(=O)O [pGPR8L (1-23), Trp-Tyr-Lys-His-Val-Ala-Ser -Pro-Arg-Tyr-His-Thr-Val-Gly-Arg-Ala-Ala-Gly-Leu-Leu-Met-Gly-Leu]",–,–,intracellular cAMP production of the TGR26 expressing CHO cells was inhibited depending on the concentration,GTPγS binding of the TGR26 expressing CHO cells was promoted depending on the concentration

# Further lines, with some results ahead:
inhibition for the specific binding of [125I-Tyr10]-hGPR8L (1-23) (TGR26 [3]),"pIC50 (TGR26 [3]; membrane fraction of TGR26 expressing CHO cells, [125I-Tyr10]-hGPR8L (1-23), method of Example 8)",Molecule,inhibiting activity of intracellular cAMP production (TGR26 [1]),promoting activity of GTPγS binding (TGR26 [2])
can also be confirmed,–,"SEQ ID NO: 74: rat homologue of hGPR8L (1-30), ligand peptide to GPR8 deduced from SEQ ID NO: 72 (WYKHVASPRYHTVGRASGLLMGLRRSPYLW; Rat)",intracellular cAMP production of the TGR26 expressing CHO cells was inhibited depending on the concentration,GTPγS binding of the TGR26 expressing CHO cells was promoted depending on the concentration
–,9.92,CSCC[C@H](NC(=O)[C@H](CC(C)C)NC(=O)[C@H](CC(C)C)NC(=O)CNC(=O)[C@H](C)NC(=O)[C@H](C)NC(=O)[C@H](CCCNC(=N)N)NC(=O)CNC(=O)[C@@H](NC(=O)[C@@H](NC(=O)[C@H](Cc1c[nH]cn1)NC(=O)[C@H](Cc1ccc(O)cc1)NC(=O)[C@H](CCCNC(=N)N)NC(=O)[C@@H]1CCCN1C(=O)[C@H](CO)NC(=O)[C@H](C)NC(=O)[C@@H](NC(=O)[C@H](Cc1c[nH]cn1)NC(=O)[C@H](CCCCN)NC(=O)[C@H](Cc1ccc(O)cc1)NC(=O)CCc1c[nH]c2ccccc12)C(C)C)[C@@H](C)O)C(C)C)C(=O)NCC(=O)N[C@@H](CC(C)C)C(=O)O [IndPr-hGPR8L (2-23)] (HELM PEPTIDE1{[O=C(CCc1c[nH]c2ccccc12)[*:2]].Y.K.H.V.A.S.P.R.Y.H.T.V.G.R.A.A.G.L.L.M.G.L}$$$$V2.0; C-terminus assumed),–,–
can also be confirmed,–,Trp-Tyr-Lys-His-Val-Ala-Ser -Pro-Arg-Tyr-His-Thr-Val-Gly-Arg-Ala-Ala-Gly-Leu-Leu-Met-Gly-Leu [SEQ ID NO: 73],intracellular cAMP production of the TGR26 expressing CHO cells was inhibited depending on the concentration,GTPγS binding of the TGR26 expressing CHO cells was promoted depending on the concentration
